The record followed here is patent publication USRE43371 (dated 2012).

Square brackets hold non-standard residues; d marks the D form. MeBmt = C/C=C/C[C@@H](C)[C@@H](O)[C@H](NC)C(=O)O; NMeI = CC[C@H](C)[C@H](NC)C(=O)O; NMeL = CN[C@@H](CC(C)C)C(=O)O; NMeV = CN[C@H](C(=O)O)C(C)C; Abu = CC[C@H](N)C(=O)O; Sar = CNCC(=O)O

Test [1] deals with T1, human recombinant cyclophilin A (Sigma) (human, UniProt P62937 1-165).
T1 construct: Bought protein
Nature of the test: chymotrypsin-coupled spectrophotometric PPIase assay, tight binding inhibitor fit.

A further test deals with cyclophilin (Sigma). Nature of the test: cell-based or functional assay.
Chain of cyclophilin (Sigma) (P62937 whole entry): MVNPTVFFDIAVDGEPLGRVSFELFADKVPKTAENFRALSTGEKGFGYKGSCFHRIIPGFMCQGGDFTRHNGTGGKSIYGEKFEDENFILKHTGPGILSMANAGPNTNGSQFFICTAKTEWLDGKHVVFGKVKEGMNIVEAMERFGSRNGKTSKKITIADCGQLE

T1 sequence (P62937 whole entry): as above

Broadly, the Ki is a dissociation constant, usually derived from enzyme kinetics or from competition with a known ligand. On to cyclo([MeBmt][Abu][Sar][NMeI]V[NMeL]A[dA][NMeL][NMeL][NMeV]) (also called [Melle]^4-CsA; NIM811) [[MeIle]^4-CsA], for which, in test [1], the Ki turned out to be 2.11 nM. The “PPIase (IC50 of inhibition of cyclophilin PPIase activity, relative to cyclosporin A = 1.0)” value in the test with cyclophilin (Sigma) is 0.5 relative to CsA.
